Measured values published in patent US20240366624A1 (WASHINGTON UNIVERSITY, published 2024).
Each block holds one binder with its values, some of them ahead of it.

Legend:
[1] = target: T1, recombinant human ERO1α (endoplasmic reticulum oxidoreductase 1α), wild type (human, UniProt Q96HE7 24-468, biotinylated when coupled to the bio-layer interferometry biosensor (site not stated)); experiment: bio-layer interferometry, biotinylated ERO1α on the biosensor, STIM1 in solution
T1 construct: also called wtERO1α; biotinylated ERO1α
T1 sequence (looked up): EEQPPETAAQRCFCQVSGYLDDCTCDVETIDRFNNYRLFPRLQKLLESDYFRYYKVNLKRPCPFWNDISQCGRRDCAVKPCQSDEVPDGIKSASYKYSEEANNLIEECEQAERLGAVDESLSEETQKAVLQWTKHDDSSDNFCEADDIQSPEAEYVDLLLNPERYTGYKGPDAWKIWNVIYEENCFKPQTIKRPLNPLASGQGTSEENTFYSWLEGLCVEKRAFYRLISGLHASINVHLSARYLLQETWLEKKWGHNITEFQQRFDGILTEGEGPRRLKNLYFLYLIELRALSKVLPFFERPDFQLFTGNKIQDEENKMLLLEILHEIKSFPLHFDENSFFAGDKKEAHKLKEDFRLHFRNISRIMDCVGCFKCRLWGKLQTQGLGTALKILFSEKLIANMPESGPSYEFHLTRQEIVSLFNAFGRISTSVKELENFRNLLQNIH
From the text: PDI is reported to localize in the DTS of platelets. […] It is reported that deletion of platelet STIM1 reduces Ca²⁺ store content in the DTS and SOCE. Thus, ERO1α regulation of STIM1 function was investigated. Bio-layer interferometry was first performed using a biosensor coupled with biotinylated ERO1α and a different concentration of WT or mutant STIM1 in which Cys49 and Cys56 residues were mutated to Ser49 and Ser56 (mutant STIM1 [mSTIM1]-Cys49/56Ser).

[2] = target: T2, human platelet PDI (protein disulfide isomerase) (human, UniProt P07237 18-508); experiment: immunoprecipitation of PDI from lysates of resting and thrombin-treated human platelets, immunoblot with anti-ERO1α, densitometry
T2 construct: Immunoprecipitated with biotinylated polyclonal anti-PDI antibodies
Description: FIG. 1(A-D) is an exemplary embodiment of PDI interacting with ERO1α in platelets in accordance with the present disclosure. Human platelets were treated with or without thrombin for 5 minutes and immunoprecipitated with biotinylated polyclonal anti-PDI antibodies or control IgG. After trypsin digestion, mass spectrometric analysis was conducted. […] FIG. 1B: Examples of the identification of the tryptic peptides […] (SEQ ID NO: 1) and […] (SEQ ID NO: 2) from ERO1α in which the parent ion is observed at 521.77 and 753.37 m/z, respectively, and the parent ion mass error is 4.3 and 3.5 ppm, respectively. FIG. 1C: The peptide sequences of ERO1α that were detected after trypsin digestion. FIG. 1D: After immunoprecipitation with antibodies, the bound fraction was immunoblotted with the indicated antibodies, followed by densitometry (the band density of ERO1a/that of PDI). The data represent the mean±SD (n=3). P value determined by unpaired Student's t-test.

[3] = target: T3, human platelet STIM1 (stromal interaction molecule 1) (human, UniProt Q13586 23-685); experiment: co-immunoprecipitation of ERO1α from lysates of resting and thrombin-activated human platelets, mass spectrometry; volcano plot thrombin versus no thrombin
T3 construct: Co-immunoprecipitated with ERO1α

[4] = target: T4, human platelet SERCA2 (sarco/endoplasmic reticulum Ca2+ ATPase 2) (human, UniProt P16615 1-1042, limits assumed); experiment: as above
T4 construct: Co-immunoprecipitated with ERO1α
T4 sequence (P16615 whole entry): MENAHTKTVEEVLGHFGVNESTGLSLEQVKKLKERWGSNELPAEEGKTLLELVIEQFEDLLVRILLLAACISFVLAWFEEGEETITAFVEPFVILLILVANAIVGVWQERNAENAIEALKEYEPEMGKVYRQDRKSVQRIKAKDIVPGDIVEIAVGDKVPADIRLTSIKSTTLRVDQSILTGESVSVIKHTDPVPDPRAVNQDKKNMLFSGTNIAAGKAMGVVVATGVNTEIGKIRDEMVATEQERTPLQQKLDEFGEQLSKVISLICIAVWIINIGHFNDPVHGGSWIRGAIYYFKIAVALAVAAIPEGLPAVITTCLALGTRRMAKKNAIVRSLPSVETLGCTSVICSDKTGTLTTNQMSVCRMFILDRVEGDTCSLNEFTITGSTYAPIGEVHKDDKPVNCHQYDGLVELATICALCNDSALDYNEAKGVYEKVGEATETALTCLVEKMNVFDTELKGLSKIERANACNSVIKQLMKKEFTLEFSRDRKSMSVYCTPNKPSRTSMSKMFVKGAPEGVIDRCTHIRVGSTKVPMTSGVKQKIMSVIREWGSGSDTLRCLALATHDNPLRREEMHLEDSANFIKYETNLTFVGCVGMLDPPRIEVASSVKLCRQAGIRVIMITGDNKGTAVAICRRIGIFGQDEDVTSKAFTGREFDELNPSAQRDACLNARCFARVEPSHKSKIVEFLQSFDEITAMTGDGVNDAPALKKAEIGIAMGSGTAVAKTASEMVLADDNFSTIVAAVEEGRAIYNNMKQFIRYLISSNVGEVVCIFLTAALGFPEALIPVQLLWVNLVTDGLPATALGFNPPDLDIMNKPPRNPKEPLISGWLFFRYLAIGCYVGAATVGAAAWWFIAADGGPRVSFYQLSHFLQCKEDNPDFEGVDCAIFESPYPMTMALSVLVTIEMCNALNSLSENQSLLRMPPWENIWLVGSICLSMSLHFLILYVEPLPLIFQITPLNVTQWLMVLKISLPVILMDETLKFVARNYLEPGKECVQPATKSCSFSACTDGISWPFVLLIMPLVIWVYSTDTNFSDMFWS

T2 sequence (P07237 18-508 limits assumed): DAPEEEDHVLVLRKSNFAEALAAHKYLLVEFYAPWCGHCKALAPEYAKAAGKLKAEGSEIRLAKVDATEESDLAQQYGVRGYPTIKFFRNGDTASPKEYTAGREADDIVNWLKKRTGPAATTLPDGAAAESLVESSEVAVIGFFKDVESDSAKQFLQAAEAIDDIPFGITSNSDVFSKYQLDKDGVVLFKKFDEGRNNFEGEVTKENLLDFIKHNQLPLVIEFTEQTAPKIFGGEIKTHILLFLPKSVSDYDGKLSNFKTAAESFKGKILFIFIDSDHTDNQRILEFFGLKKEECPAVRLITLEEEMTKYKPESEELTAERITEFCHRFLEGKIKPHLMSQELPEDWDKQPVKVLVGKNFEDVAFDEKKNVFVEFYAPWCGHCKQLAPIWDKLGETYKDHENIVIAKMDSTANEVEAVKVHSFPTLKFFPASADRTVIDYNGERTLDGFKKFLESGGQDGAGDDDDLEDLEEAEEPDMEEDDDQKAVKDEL

Kd [1]: 2600 nM
B1: wild type STIM1, recombinant (other, UniProt Q13586 23-213, looked up)
chain: LSHSHSEKATGTSSGANSEESTAAEFCRIDKPLCHSEDEKLSFEAVRNIHKLMDDDANGDVDVEESDEFLREDLNYHDPTVKHSTFHGEDKLISVEDLWKAWKSSEVYNWTVDEVVQWLITYVELPQYEETFRKLQLSGHAMPRLAVTNTTMTGTVLKMTDRSHRQKLQLKALDTVLFGPPLLTRHNHLKD
notes: also called wtSTIM1; WT STIM1

binding result [2]: binds | binding result [3]: binds | binding result [4]: binds
B2: human platelet ERO1α (enzyme, UniProt Q96HE7 24-468, looked up)
chain: T1 sequence (looked up)
notes: Endogenous protein in platelet lysates (immunoprecipitation, immunoblot)
